These results are taken from publication PMC7263589, “Integration of phage and yeast display platforms: A reliable and cost effective approach for binning of peptides as displayed on-phage” (PLoS ONE, 2020).

Details in all cases: both partners purified
One assay addresses T1, IL-23-HIS (human, UniProt Q9NPF7 20-189; P29460 23-328).
T1 construct: IL-23 p19 subunit, human; IL-12/IL-23 p40 subunit, human; also called IL-23 only; IL-23 protein
T1 sequence (looked up) 1: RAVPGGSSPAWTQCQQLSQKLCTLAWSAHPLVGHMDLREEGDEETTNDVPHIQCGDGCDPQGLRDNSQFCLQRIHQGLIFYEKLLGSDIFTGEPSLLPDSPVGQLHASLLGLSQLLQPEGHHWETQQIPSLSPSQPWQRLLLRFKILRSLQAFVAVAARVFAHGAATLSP
T1 sequence (looked up) 2: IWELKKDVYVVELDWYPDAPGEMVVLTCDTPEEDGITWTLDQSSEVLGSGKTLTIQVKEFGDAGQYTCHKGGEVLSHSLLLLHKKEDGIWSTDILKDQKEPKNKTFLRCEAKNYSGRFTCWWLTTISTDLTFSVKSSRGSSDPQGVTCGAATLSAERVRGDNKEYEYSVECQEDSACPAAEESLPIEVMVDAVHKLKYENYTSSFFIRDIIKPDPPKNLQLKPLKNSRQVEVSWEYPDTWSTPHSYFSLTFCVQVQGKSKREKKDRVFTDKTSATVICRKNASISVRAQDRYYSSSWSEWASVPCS
Put plainly: SPR; competition SPR, 25°C; IL-23R-Fc-AVI (<1000 RU) captured on Protein-A; 20 nM IL-23 mixed with one concentration of peptide or cold IL-23R injected 30 s; 10 mM HEPES pH 7.5, 150 mM NaCl, 0.005% P20, 1% BSA; n = 1. (In general: Surface plasmon resonance follows binding to a sensor surface in real time, without labels.)

The target in assay [1] is T2, IL-23 (heterodimer of the p19 and p40 subunits), protein for crystallization (human, UniProt Q9NPF7 20-189; P29460 23-328, Two N-Acetylglucosamine sugars modeled at Asn200).
T2 construct: Interleukin-23 subunit alpha (p19), human; Interleukin-12 subunit beta (p40), human; attempts were made to limit glycosylation; Multiple flexible loops are missing from the model; also called hu IL-23
T2 sequence (looked up) 1: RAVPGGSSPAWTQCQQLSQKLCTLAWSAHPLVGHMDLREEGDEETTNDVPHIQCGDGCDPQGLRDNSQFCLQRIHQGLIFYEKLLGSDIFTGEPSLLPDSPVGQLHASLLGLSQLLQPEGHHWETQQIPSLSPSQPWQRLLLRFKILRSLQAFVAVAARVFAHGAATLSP
T2 sequence (looked up) 2: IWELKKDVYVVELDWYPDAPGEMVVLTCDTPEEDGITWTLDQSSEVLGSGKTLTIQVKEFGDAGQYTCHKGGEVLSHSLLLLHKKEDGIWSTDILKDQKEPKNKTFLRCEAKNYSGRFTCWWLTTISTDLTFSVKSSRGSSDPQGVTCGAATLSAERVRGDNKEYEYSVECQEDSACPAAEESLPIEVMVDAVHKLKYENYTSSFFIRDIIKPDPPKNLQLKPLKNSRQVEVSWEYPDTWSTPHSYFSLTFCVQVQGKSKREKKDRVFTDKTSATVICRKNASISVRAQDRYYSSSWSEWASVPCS
Put plainly: crystal structure; IL-23:peptide mixture, 1:1 molar ratio, ~16 mg/mL; sitting-drop vapor diffusion at 8°C; 100 mM Hepes pH 7, 17% w/v PEG 3350, 150 mM potassium nitrate; 2.7 Å, space group P212121.

Assay [2] has as its target T3, IL-23 p40 subunit (as in the crystallized IL-23) (human, UniProt P29460 23-328, Two N-Acetylglucosamine sugars modeled at Asn200).
T3 construct: Interleukin-12 subunit beta (p40), human; Chain of Wm1, written on its own for the contacts seen in the structure
T3 sequence (looked up): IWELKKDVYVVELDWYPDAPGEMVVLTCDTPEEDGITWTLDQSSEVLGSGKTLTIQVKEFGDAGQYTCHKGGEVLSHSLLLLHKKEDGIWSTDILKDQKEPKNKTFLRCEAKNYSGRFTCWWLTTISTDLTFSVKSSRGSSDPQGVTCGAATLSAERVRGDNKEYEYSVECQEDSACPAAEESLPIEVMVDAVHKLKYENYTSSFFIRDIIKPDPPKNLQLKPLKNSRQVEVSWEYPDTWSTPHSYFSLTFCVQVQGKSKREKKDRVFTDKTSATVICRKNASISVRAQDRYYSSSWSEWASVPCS
Described as above.

Bridge positions count the residues as written; N and C are the ends. Ends that are not written are not given here.

B1: IL-23R-Fc-AVI (Fc fusion, UniProt Q5VWK5 24-355, looked up)
chain: GITNINCSGHIWVEPATIFKMGMNISIYCQAAIKNCQPRKLHFYKNGIKERFQITRINKTTARLWYKNFLEPHASMYCTAECPKHFQETLICGKDISSGYPPDIPDEVTCVIYEYSGNMTCTWNAGKLTYIDTKYVVHVKSLETEEEQQYLTSSYINISTDSLQGGKKYLVWVQAANALGMEESKQLQIHLDDIVIPSAAVISRAETINATVPKTIIYWDSQTTIEKVSCEMRYKATTNQTWNVKEFDTNFTYVQQSEFYLEPNIKYVFQVRCQETGKRYWQPWSSLFFHKTPETVPQVTSKAFQHDTWNSGLTVASISTGHLTSDNRGDIG
notes: IL-23 receptor (IL-23R); also called IL-23R sensor
For B1, the binding result in the assay with IL-23-HIS was “binds”.

B2: peptide 23-652 (peptide)
peptide: DTLTKSFCYFGTWCQMYGST
modifications: disulfide 8-14
notes: selected from a cyclic peptide phage library against IL-23; residues 4-18 are ordered in the structure; also called FGT/FGL-motif containing peptide; source: synthetic peptide (CPC Scientific)
As to B2, in assay [1], the binding result is given as “binds”.

B3: IL-23 p19 subunit (as in the crystallized IL-23) (natural protein, human, UniProt Q9NPF7 20-189, looked up)
chain: RAVPGGSSPAWTQCQQLSQKLCTLAWSAHPLVGHMDLREEGDEETTNDVPHIQCGDGCDPQGLRDNSQFCLQRIHQGLIFYEKLLGSDIFTGEPSLLPDSPVGQLHASLLGLSQLLQPEGHHWETQQIPSLSPSQPWQRLLLRFKILRSLQAFVAVAARVFAHGAATLSP
notes: Interleukin-23 subunit alpha (p19), human; Chain of Wm1, written on its own for the contacts seen in the structure
In the case of B3, the binding result in assay [2] was “binds”.
